Data as given in paper PMC4965175.

Target: D-allulose 3-epimerase from Flavonifractor plautii (Flavonifractor plautii ATCC 29863)
Experiment: SEC; gel filtration on Sephacryl S-300 HR 16/60; purified enzyme eluted with 50 mM Tris-HCl pH 7.5, 150 mM NaCl, 1 mL/min; calibrated with ferritin, catalase, aldolase and conalbumin

D-allulose 3-epimerase from Flavonifractor plautii (enzyme)
stoichiometry N: 4
